Patent US20260062479A1

B1: parent antibody (murine anti-TIRC7 antibody 17-20, cAb1457) (antibody, V domains shown)
VH: QVQLKQSGPELVKPGASVKMSCKASGYTFTTYVMHWVKQKPGQGLEWIGYINPYNDGTNYNEKFKGKATLTSDKSSSTAYMELSTLTSEDSAVYYCAEFITKTVGGSNWYLDVWGAGTTVTVSS
VL: DIVLTQSPAIMSASPGEKVTMTCSASSSISYIHWFQQKPGTSPKRWIYDTSKLPSGVPARFSGSGSGTSYSLTISSMEAEDAATYYCHQRSSYTWTFGGGTKLEIK
B2: cAB1467-10.0 (antibody, V domains shown)
VH: QVQLVQSGAEVKKPGASVKVSCKASGYTFTTYVMHWVRQAPGKGLEWMGYINPYNDGTNYNEKFKGRVTLTSDKSTSTAYMELSSLRSEDTAVYYCAEFITKTVGGSNWYLDVWGQGTTVTVSS
VL: DIQLTQSPSFLSASVGDRVTITCSASSSISYIHWFQQKPGKAPKRWIYDTSKLPSGVPSRFSGSGSGTEYTLTISSLQPEDFATYYCHQRSSYTWTFGGGTKLEIK
B3: cAB1468-10.0 (antibody, V domains shown)
VH: QVQLVQSGAEVKKPGASVKVSCKASGYTFTTYVMHWVRQAPGKGLEWMGYINPYNDGTNYNEKFKGRVTLTSDKSTSTAYMELSSLRSEDTAVYYCAEFITKTVGGSNWYLDVWGQGTTVTVSS
VL: EIVLTQSPATLSLSPGERATLSCSASSSISYIHWYQQKPGQAPRRLIYDTSKLPSGIPARFSGSGSGTDFTLTISSLEPEDFAVYYCHQRSSYTWTFGGGTKLEIK
B4: cAB1459-10.0 (antibody, V domains shown)
VH: QVQLVQSGAEVKKPGASVKVSCKASGYTFTTYVMHWVRQAPGKGLEWMGYINPYNDGTNYNEKFKGRVTMTEDTSTDTAYMELSSLRSEDTAVYYCAEFITKTVGGSNWYLDVWGQGTTVTVSS
VL: DIQLTQSPSFLSASVGDRVTITCSASSSISYIHWFQQKPGKAPKRWIYDTSKLPSGVPSRFSGSGSGTEYTLTISSLQPEDFATYYCHQRSSYTWTFGGGTKLEIK

Target: largest TIRC7 extracellular domain (T-cell immune response cDNA 7) (human) (UniProt Q13488)
Assay: SPR, Biacore T200, 25 C, TIRC7 domain immobilized on CM5 chip, 1:1 kinetic fit

Row | Binder | Kd [nM] | koff [s⁻¹] | kon [M⁻¹ s⁻¹]
1 | B1 | 0.3 | 0.00013 | 520000
2 | B2 |  |  | 1.24e+06
3 | B3 |  |  | 1.13e+06
4 | B4 |  |  | 3.56e+06
